According to patent publication US20250122306A1 (SUTRO BIOPHARMA, published 2025):

How the values were obtained:
[1] = target: T1, cynomolgus tissue factor on HEK293T-cynoTF cells (cynomolgus monkey, UniProt P13726 33-294 (human entry)); experiment: flow cytometry on HEK293T-cynoTF cells, one-site fit of MFI
T1 construct: stably transfected HEK293T cells
T1 chain: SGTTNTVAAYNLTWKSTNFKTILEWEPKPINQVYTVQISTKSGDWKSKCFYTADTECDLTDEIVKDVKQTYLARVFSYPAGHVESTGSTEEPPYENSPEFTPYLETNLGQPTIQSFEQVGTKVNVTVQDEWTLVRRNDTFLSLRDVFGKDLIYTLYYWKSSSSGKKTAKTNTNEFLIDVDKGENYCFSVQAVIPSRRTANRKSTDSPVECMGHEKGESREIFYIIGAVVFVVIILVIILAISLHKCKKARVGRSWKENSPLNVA
Text: (§1) HEK293T, BxPC3 cells (TF positive) and NCI-H1703 (TF negative) cells were obtained from ATCC (American Type Culture Collection) and maintained in DMEM: F12 (1:1), high glucose (Corning) supplemented with 10% heat-inactivated fetal bovine serum (ThermoScientific), 1× Penicillin/Streptomycin (Corning) and 2 mmol glutamax (Thermo Fisher Scientific). To generate cells that stably expressing human tissue factor (HEK293T-humanTF) or cynomolgus tissue factor (HEK293T-cynoTF), HEK293T cells were transfected with plasmid vectors that contain the corresponding protein sequence and stable clones were selected with puromycin.
(§2) For a fluorescence-activated cell sorting (FACS) cell-binding assay, cells were collected by Accutase and counted by the Vi-CELL Cell Viability Analyzersharvested and, then re-suspended in FACS buffer (DPBS buffer supplemented with 1% bovine serum albumin). A total of 200,000 cells in 100 μL were incubated on ice with 100 μL of anti-TF antibodies in each well of a 96-well plate. Cells were washed twice with ice-cold FACS buffer and then incubated on ice for 60 mins with 5 μg/mL Alexa 647-labeled donkey anti-human Fc antibody (Jackson ImmunoResearch). Unstained cells and cells stained with secondary antibody alone were used as controls. Cells were washed twice with FACS buffer and analyzed using a BD FACS Canto system. Geometric mean fluorescence intensities (MFI) were fitted using non-linear regression analysis with one site specific binding equation on GraphPad Prism (GraphPad Software; La Jolla, CA).

[2] = target: T2, human tissue factor on cells (human, UniProt P13726 33-295); experiment: flow cytometry on HEK293T-humanTF cells, one-site fit of MFI
T2 construct: cell-surface TF, transfected (HEK293T-humanTF) or endogenous (tumour lines, keratinocytes); the cell line is named under assay; also called HEK293T-humanTF; TF on BxPC3, primary human keratinocytes, NCI-H292, HCC1954, NCI-H1975
Text: as §1, §2

[3] = target: T2, human tissue factor on cells; experiment: flow cytometry on primary human keratinocytes, one-site fit of MFI
Description: To evaluate antibody binding activity of the anti-TF antibodies on the adult primary keratinocytes, a total of 100,000 keratinocytes per well were incubated on ice with serial dilutions of anti-TF antibodies in FACS buffer (PBS buffer supplemented with 1% bovine serum albumin, 0.05% sodium azide) for 60 minutes. Cells were washed twice with ice-cold FACS buffer and then incubated with 5 microgram/mL Alexa 647 labeled donkey anti-human Fc antibody (Jackson ImmunoResearch, West Grove, PA) on ice for another 60 minutes. Unstained cells and cells stained with secondary antibodies alone were used as controls. Samples were then washed twice using FACS buffer and analyzed using an Attune flow cytometer (Thermo Fisher). Geometric mean fluorescence intensities were fitted using non-linear regression analysis with one site specific binding equation on GraphPad Prism.

[4] = target: T3, human tissue factor (human TF, Lake Pharma) (human, UniProt P13726 33-251, limits assumed); experiment: Biacore SPR kinetics, antibody captured on anti-Fc, 1:1 Langmuir fit
T3 construct: bought recombinant antigen; also called CD142
Description: (§3) Anti-Fc polyclonal antibodies were immobilized onto a CM4 chip (Cytiva #BR100534) using amine coupling chemistry (Human Antibody Capture Kit, Cytiva #BR100839). The immobilization steps were carried out at a flow rate of 25 μL/min in 1×HBS-EP+buffer (Cytiva #BR100669). The sensor surfaces were activated for 7 min with a mixture of N-hydroxysuccinimide (NHS, 0.05 M) and 1-ethyl-3-(3-dimethylaminopropyl)-carbodiimide (EDC, 0.2 M). The anti-Fc polyclonal antibodies were injected over all 4 flow cells at a concentration of 25 μg/mL in 10 mM sodium acetate, pH 4.5, for 7 min. Ethanolamine (1 M, pH 8.5) was injected for 7 min to block any remaining activated groups.
(§4) Off-rate and kinetic binding experiments were performed at 25° C. using 1×HBS-EP+buffer. Antibodies were injected over the anti-Fc surface at a concentration of 3 μg/mL for 12 seconds at a flow rate of 10 μL/min on flow cells 2, 3 and 4, followed by a buffer wash for 30 seconds at the same flow rate. Single point off-rate analysis was carried out using an antigen concentration of 100 nM. […] After capturing ligand (antibody) on the anti-Fc surface, the analyte (human TF, Lake Pharma; cynomolgus TF, Sino Bio #90885-C08H; mouse TF, R&D Systems #3178-PA) was bound for 180 seconds, followed by a 420 second dissociation phase at a flow rate of […]. Between each ligand capture and analyte binding cycle, regeneration was carried out using 2 injections of 10 mM glycine pH 2.0 for 30 seconds at 30 μL/min, followed by a 30 second buffer wash step.
(§5) The data were fit with the Biacore T200 Evaluation software, using a 1:1 Langmuir binding model. KD (affinity, nM) was determined as a ratio of the kinetic rate constants calculated from the fits of the association and dissociation phases.

[5] = target: T4, cynomolgus tissue factor (cynomolgus TF, Sino Bio #90885-C08H) (cynomolgus monkey, UniProt P13726 33-251 (human entry)); experiment: as above
T4 construct: bought recombinant antigen; also called cyno TF
T4 chain: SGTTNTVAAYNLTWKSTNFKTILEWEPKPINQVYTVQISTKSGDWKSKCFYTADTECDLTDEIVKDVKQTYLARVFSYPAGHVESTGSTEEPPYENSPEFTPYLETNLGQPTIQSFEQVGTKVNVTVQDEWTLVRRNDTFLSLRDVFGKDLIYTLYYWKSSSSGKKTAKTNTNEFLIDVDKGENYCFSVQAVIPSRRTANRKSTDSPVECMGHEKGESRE
Description: as §3, §4, §5

T3 sequence (P13726 33-251 limits assumed): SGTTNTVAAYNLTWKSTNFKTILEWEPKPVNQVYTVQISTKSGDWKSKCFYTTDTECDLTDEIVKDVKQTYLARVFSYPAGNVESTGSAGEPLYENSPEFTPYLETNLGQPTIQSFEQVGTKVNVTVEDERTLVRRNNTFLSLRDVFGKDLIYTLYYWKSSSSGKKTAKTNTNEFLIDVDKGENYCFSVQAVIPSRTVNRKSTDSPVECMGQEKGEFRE

Bmax (MFI) [1]: 493000 MFI
Kd [1]: 3.9 nM
Bmax (MFI) [2]: 334000 MFI
Kd [2]: 3.9 nM
Kd [3]: 24 nM
Kd [4]: 7.3 nM
koff [4]: 0.000418 s⁻¹
kon [4]: 57200 M⁻¹ s⁻¹
Kd [5]: 15.6 nM
koff [5]: 0.00113 s⁻¹
kon [5]: 72400 M⁻¹ s⁻¹
B1: mAb 37: aTF_2842-B01_Hc3_Y180/F404TAG pAzMeF; aTF_2842-B01_Lc2 (antibody, IgG1, V domains shown)
VH: EVQLVESGGGLVQPGGSLRLSCAASGFSISSYDMSWVRQAPGKGLEWIGIIGSNGRTYYPDSVKGRFTISRDNSKNTVTLQMNSLRAEDTAVYYCARGLYDGTGNIWGQGTLVTVSS
VL: ELVMTQSPPTLSLSPGERVTLSCRASQSVYGNNWLSWYQQKPGQAPRLLIYGASKLATSIPARFSGSGSGTQFTLTISSLQPEDFAVYYCQGTYYSGDWYFAFGQGTKVEIKR
modifications: pAzMeF at Y180 and F404 (EU), * in the sequence
notes: unconjugated full-length IgG1/kappa, cell-free expressed; also called 2842-B01 HC3/LC2; 2842-B01-HC3/LC2 Y180/F404
